Assay [1] addresses T1, VEGF (UniProt P15692-4 27-191, limits assumed, biotin-labelled (Sulfo-NHS biotin, molar ratio 2:1) in the BLI assay; unlabelled in the competition ELISA).
T1 construct: also called biotin-labeled VEGF
The assay is described as follows: BLI (Octet-QK), biotin-VEGF on SA probe; repeat 1. An excerpt: (§1) The binding affinities of the fusion proteins were detected using BLI (Bio-layer inteferometry, ForteBio). […] Excess biotin not involved in labeling was removed by dialysis. […] The buffer used in the experiment was PBS (containing 0.1% Tween-20). […] Based on the program settings, the fusion proteins were bound, and then dissociated in PBST solution, to obtain the experimental curves. According to the result analysis software of Octet-QK, local full was used to fit the curves of the experimental results, then kon, kdis and Kd were determined.

For assay [2], the target named is T1, VEGF. The assay is described as follows: BLI (Octet-QK), biotin-VEGF on SA probe; repeat 2.
Description: as §1

Assay [3] concerns the target T1, VEGF. The assay is described as follows: BLI (Octet-QK), biotin-VEGF on SA probe; repeat 3.
Description: as §1

For assay [4], the target named is T1, VEGF. The assay is described as follows: BLI (Octet-QK), biotin-VEGF on SA probe; average of 3 repeats (STD 0.05).
Description: as §1

Assay [5] has as its target T1, VEGF. The assay is described as follows: competition ELISA: inhibition of VEGF binding to plate-coated VEGF Receptor 2 (KDR). The procedure: (§2) The plate was then blocked with 1% BSA/TBS and placed at 37° C. for 1 h; 1% BSA/TBS was added to the plate, 200 μL per well, and placed at 37° C. for 2 h.
(§3) Then, the stock solutions were diluted by 3 times to a total of 11 concentrations. […] The KDR-coated ELISA plate was washed twice and pat-dried. The mixture was successively transferred to the ELISA plate and placed at 37° C. for 1 h, then the plate was washed for 6 times. […] The plate was placed at 37° C. for 1 h and washed for 6 times. Then, goat anti-rat secondary antibody (Pierce, 31432, QA1969921) diluted at 1:1000 was added, 50 μL per well. The plate was placed at 37° C. for 1 h and washed for 6 times. Color developing solution was added after reaction, and the plated was incubated at 37° C. for 15 min. Stop buffer was added to terminate the color reaction. OD450 values were read on a microplate reader.

For assay [6], the target named is T1, VEGF. The assay is described as follows: competition ELISA: sample pre-mixed with VEGF, mixture put on a plate coated with VEGF Receptor 2 (KDR), bound VEGF detected with mouse anti-human VEGF antibody, OD450; blocked ligand-receptor pair VEGF/KDR. Here is the method:
as §2, §3

Assay [7] deals with GLP-2R (GLP-2 receptor) on GLP-2R/Luc-CHO cells. The assay is described as follows: cell-based or functional assay.
For assay [8], the target named is T1, VEGF. The assay is described as follows: BLI (Octet-QK), biotin-VEGF on SA probe; average of 3 repeats (STD 0.10).
Description: as §1

T1 sequence (P15692 other isoform, or with tags, fused parts or gaps limits assumed): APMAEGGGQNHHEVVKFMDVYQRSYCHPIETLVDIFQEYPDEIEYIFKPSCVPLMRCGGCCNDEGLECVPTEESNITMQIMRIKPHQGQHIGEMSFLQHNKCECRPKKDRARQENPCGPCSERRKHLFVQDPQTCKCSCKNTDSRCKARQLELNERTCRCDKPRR

B1: PU73x49-ARVEGF (designed binder)
chain: APAEAPAAAEEAPPAEPAPEAPAEAPAAAEEAPPAEPAPEAPAEAPAAAEEAPPAEPAPEAPAEAPAAAEEAPPAEPAPEAPAEAPAAAEEAPPAEPAPEAPAEAPAAAEEAPPAEPAPEAPAEAPAAAEEAPPAEPAPEAPAEAPAAAEEAPPAEPAPEAPAEAPAAAEEAPPAEPAPEAPAEAPAAAEEAPPAEPAPEAPAEAPAAAEEAPPAEPAPEAPAEAPAAAEEAPPAEPAPEAPAEAPAAAEEAPPAEPAPEAPAEAPAAAEEAPPAEPAPEAPAEAPAAAEEAPPAEPAPEAPAEAPAAAEEAPPAEPAPEAPAEAPAAAEEAPPAEPAPEAPAEAPAAAEEAPPAEPAPEAPAEAPAAAEEAPPAEPAPEAPAEAPAAAEEAPPAEPAPEAPAEAPAAAEEAPPAEPAPEAPAEAPAAAEEAPPAEPAPEAPAEAPAAAEEAPPAEPAPEAPAEAPAAAEEAPPAEPAPEAPAEAPAAAEEAPPAEPAPEAPAEAPAAAEEAPPAEPAPEAPAEAPAAAEEAPPAEPAPEAPAEAPAAAEEAPPAEPAPEAPAEAPAAAEEAPPAEPAPEAPAEAPAAAEEAPPAEPAPEAPAEAPAAAEEAPPAEPAPEAPAEAPAAAEEAPPAEPAPEAPAEAPAAAEEAPPAEPAPEAPAEAPAAAEEAPPAEPAPEAPAEAPAAAEEAPPAEPAPEAPAEAPAAAEEAPPAEPAPEAPAEAPAAAEEAPPAEPAPEAPAEAPAAAEEAPPAEPAPEAPAEAPAAAEEAPPAEPAPEAPAEAPAAAEEAPPAEPAPEAPAEAPAAAEEAPPAEPAPEAPAEAPAAAEEAPPAEPAPEAPAEAPAAAEEAPPAEPAPEAPAEAPAAAEEAPPAEPAPEAPAEAPAAAEEAPPAEPAPEAPAEAPAAAEEAPPAEPAPEAPAEAPAAAEEAPPAEPAPEAPAEAPAAAEEAPPAEPAPEAPAEAPAAAEEAPPAEPAPEGSDLDKKLLEAARAGQDDEVRILMANGADVNARDSTGWTPLHLAAPWGHPEIVEVLLKNGADVNAADFQGWTPLHLAAAVGHLEIVEVLLKYGADVNAQDKFGKTAFDISIDNGNEDLAEILQKAA
notes: also called PU-ARVEGF fusion protein
Regarding B1, the Kd in assay [1] was 620 pM; in assay [2], 610 pM; in assay [3], 700 pM; in assay [4], 640 pM. Further, the IC50 in assay [5] stood at 550 pM. For the same molecule, in assay [6], the “IC50 (read off the curve)” value was around 300 pM.

B2: GLP2G-PU98x43 (ligand)
chain: HGDGSFSDEMNTILDNLAARDFINWLIQTKITDAEPAAPAPAEPAAPAPEAPAAEPAAPAPAEPAAPAPEAPAAEPAAPAPAEPAAPAPEAPAAEPAAPAPAEPAAPAPEAPAAEPAAPAPAEPAAPAPEAPAAEPAAPAPAEPAAPAPEAPAAEPAAPAPAEPAAPAPEAPAAEPAAPAPAEPAAPAPEAPAAEPAAPAPAEPAAPAPEAPAAEPAAPAPAEPAAPAPEAPAAEPAAPAPAEPAAPAPEAPAAEPAAPAPAEPAAPAPEAPAAEPAAPAPAEPAAPAPEAPAAEPAAPAPAEPAAPAPEAPAAEPAAPAPAEPAAPAPEAPAAEPAAPAPAEPAAPAPEAPAAEPAAPAPAEPAAPAPEAPAAEPAAPAPAEPAAPAPEAPAAEPAAPAPAEPAAPAPEAPAAEPAAPAPAEPAAPAPEAPAAEPAAPAPAEPAAPAPEAPAAEPAAPAPAEPAAPAPEAPAAEPAAPAPAEPAAPAPEAPAAEPAAPAPAEPAAPAPEAPAAEPAAPAPAEPAAPAPEAPAAEPAAPAPAEPAAPAPEAPAAEPAAPAPAEPAAPAPEAPAAEPAAPAPAEPAAPAPEAPAAEPAAPAPAEPAAPAPEAPAAEPAAPAPAEPAAPAPEAPAAEPAAPAPAEPAAPAPEAPAAEPAAPAPAEPAAPAPEAPAAEPAAPAPAEPAAPAPEAPAAEPAAPAPAEPAAPAPEAPAAEPAAPAPAEPAAPAPEAPAAEPAAPAPAEPAAPAPEAPAAEPAAPAPAEPAAPAPEAPAAEPAAPAPAEPAAPAPEAPAAEPAAPAPAEPAAPAPEAPAAEPAAPAPAEPAAPAPEAPAAEPAAPAPAEPAAPAPEAPAAEPAAPAPAEPAAPAPEAPAAEPAAPAPAEPAAPAPEAPA
For B2, the “in vitro cytological activity, EC50 (luciferase reporter, GLP-2R/Luc-CHO cells)” value (“in vitro cytological activity, EC50” below) in assay [7] was determined as 311 nM.

B3: GLP2G-PU69x45 (ligand)
chain: HGDGSFSDEMNTILDNLAARDFINWLIQTKITDAPPEAPEAPEAAPAAPEPAEAPPEAPEAPEAAPAAPEPAEAPPEAPEAPEAAPAAPEPAEAPPEAPEAPEAAPAAPEPAEAPPEAPEAPEAAPAAPEPAEAPPEAPEAPEAAPAAPEPAEAPPEAPEAPEAAPAAPEPAEAPPEAPEAPEAAPAAPEPAEAPPEAPEAPEAAPAAPEPAEAPPEAPEAPEAAPAAPEPAEAPPEAPEAPEAAPAAPEPAEAPPEAPEAPEAAPAAPEPAEAPPEAPEAPEAAPAAPEPAEAPPEAPEAPEAAPAAPEPAEAPPEAPEAPEAAPAAPEPAEAPPEAPEAPEAAPAAPEPAEAPPEAPEAPEAAPAAPEPAEAPPEAPEAPEAAPAAPEPAEAPPEAPEAPEAAPAAPEPAEAPPEAPEAPEAAPAAPEPAEAPPEAPEAPEAAPAAPEPAEAPPEAPEAPEAAPAAPEPAEAPPEAPEAPEAAPAAPEPAEAPPEAPEAPEAAPAAPEPAEAPPEAPEAPEAAPAAPEPAEAPPEAPEAPEAAPAAPEPAEAPPEAPEAPEAAPAAPEPAEAPPEAPEAPEAAPAAPEPAEAPPEAPEAPEAAPAAPEPAEAPPEAPEAPEAAPAAPEPAEAPPEAPEAPEAAPAAPEPAEAPPEAPEAPEAAPAAPEPAEAPPEAPEAPEAAPAAPEPAEAPPEAPEAPEAAPAAPEPAEAPPEAPEAPEAAPAAPEPAEAPPEAPEAPEAAPAAPEPAEAPPEAPEAPEAAPAAPEPAEAPPEAPEAPEAAPAAPEPAEAPPEAPEAPEAAPAAPEPAEAPPEAPEAPEAAPAAPEPAEAPPEAPEAPEAAPAAPEPAEAPPEAPEAPEAAPAAPEPAEAPPEAPEAPEAAPAAPEPAEAPPEAPEAPEAAPAAPEPAEAPPEAPEAPEAAPAAPEPAE
With B3, the “in vitro cytological activity, EC50” value in assay [7] amounted to 279 nM.

B4: ankyrin repeat protein binding to VEGF (ARVEGF) (designed binder)
chain: GSDLDKKLLEAARAGQDDEVRILMANGADVNARDSTGWTPLHLAAPWGHPEIVEVLLKNGADVNAADFQGWTPLHLAAAVGHLEIVEVLLKYGADVNAQDKFGKTAFDISIDNGNEDLAEILQKAA
notes: Its preparation and any tag are not described
With B4, the Kd is 580 pM in assay [1], 690 pM in assay [2], 770 pM in assay [3] and 680 pM in assay [8]. In addition, in assay [5], the 50% inhibitory concentration (IC50) worked out at 650 pM. For the same molecule, the “IC50 (read off the curve)” value in assay [6] was around 300 pM.

B5: GLP2G-PU141x47 (ligand)
chain: HGDGSFSDEMNTILDNLAARDFINWLIQTKITDAPAAPPEEAAAEPPAAEAAPAPAAPPEEAAAEPPAAEAAPAPAAPPEEAAAEPPAAEAAPAPAAPPEEAAAEPPAAEAAPAPAAPPEEAAAEPPAAEAAPAPAAPPEEAAAEPPAAEAAPAPAAPPEEAAAEPPAAEAAPAPAAPPEEAAAEPPAAEAAPAPAAPPEEAAAEPPAAEAAPAPAAPPEEAAAEPPAAEAAPAPAAPPEEAAAEPPAAEAAPAPAAPPEEAAAEPPAAEAAPAPAAPPEEAAAEPPAAEAAPAPAAPPEEAAAEPPAAEAAPAPAAPPEEAAAEPPAAEAAPAPAAPPEEAAAEPPAAEAAPAPAAPPEEAAAEPPAAEAAPAPAAPPEEAAAEPPAAEAAPAPAAPPEEAAAEPPAAEAAPAPAAPPEEAAAEPPAAEAAPAPAAPPEEAAAEPPAAEAAPAPAAPPEEAAAEPPAAEAAPAPAAPPEEAAAEPPAAEAAPAPAAPPEEAAAEPPAAEAAPAPAAPPEEAAAEPPAAEAAPAPAAPPEEAAAEPPAAEAAPAPAAPPEEAAAEPPAAEAAPAPAAPPEEAAAEPPAAEAAPAPAAPPEEAAAEPPAAEAAPAPAAPPEEAAAEPPAAEAAPAPAAPPEEAAAEPPAAEAAPAPAAPPEEAAAEPPAAEAAPAPAAPPEEAAAEPPAAEAAPAPAAPPEEAAAEPPAAEAAPAPAAPPEEAAAEPPAAEAAPAPAAPPEEAAAEPPAAEAAPAPAAPPEEAAAEPPAAEAAPAPAAPPEEAAAEPPAAEAAPAPAAPPEEAAAEPPAAEAAPAPAAPPEEAAAEPPAAEAAPAPAAPPEEAAAEPPAAEAAPAPAAPPEEAAAEPPAAEAAPAPAAPPEEAAAEPPAAEAAPAPAAPPEEAAAEPPAAEAAPAPAAPPEEAAAEPPAAEAAPAPAAPPEEAAAEPPAAEAAPAPAAPPEEAAAEPPAAEAAP
As to B5, the “in vitro cytological activity, EC50” value in assay [7] was found to be 299 nM.

The record behind these values is patent US20220119448A1 (ZHEJIANG DOER BIOLOGICS, published 2022).
